Assay results reported in the nanobody polyreactivity screen of Harvey et al. (2022).

Test: yeast display, Sf9 membrane polyspecificity reagent, FACS + sequencing; frameworks hold sequencing errors
How it was run: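 Using colony PCR, genes from sorted yeast display clones were amplified, then sequenced on MiSeq at 2 × 250 and filtered by CDR length. The clones had been stained with 10% biotinylated, detergent-solubilized Sf9 membrane reagent for 1 hour at 4 °C and sorted by FACS into low and high (top ~1%) gates on anti-HA and streptavidin fluorescence. Polyreactivity labels come from the gate of origin.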

| Sequence | polyreactivity (PSR sort gate) |
| --- | --- |
| QVQLVESGGGLVQAGGSLRLSCAASGSIFEYNGMGWYRQAPGKERELVAAITTTGTTDYADSVKGRFTISRDNAKNTVYLEMNSLIPEDTSVFYCAADYTYYYKGEYEYWGQGTQVTVSS | low polyreactivity |
| QVQLVESGGGLVQAGGSLRLSCAASGLTFSRYAMGWYRQAPGKERELVAAISSRSGSTFYADSVKGRFTISRDNAKNTVYLQMNSLKPEDTAVYYCAARRDWLGGYWGQGTQVTVSS | high polyreactivity |
| QVQLVESGGGLVQAGGSLRLSCAASGSIFRTYSMGGYRQAPGKERELVATITFGGVSTYYADSVKGRFTISRDNAKNTVYLQMNSLKPEDTAVYYCAADVYTRFWRVYRFDYWGQGTQVTVSS | low polyreactivity |
| QVQLVESGGGLVQAGGSLRLSCAASGRTFSFYAMGWYRQAPGKERELVAGIDWDDGSTSYADSVKGRFTISRDNAKNTVYLQMNSLKPEDTAVYYCAAGPYAGVDPGDYYYWGQGTQVTVSS | low polyreactivity |
| QVQLVESGGGLVQAGGSLRLSCAASGSIFRYNTMGWYRQAPGKERELVASIRIGGSTYYADSVKGRFTISRDNAKNTVYLQMNSLKPEDTAVYYCAVRPYRSAGGSVTRGAYYYWGQGTQVTVSS | high polyreactivity |
| QVQLVESGGGLVQAGGSLRLSCAASGRIFDYYAMGWYRPAPGKERELVAAITSGGTTTYYADSVKGRFTISRDNAKNTVYVQMNSLKPEDTAVYYCAKYPYHIYHTDGDYWGQGTQVTVSS | low polyreactivity |
| QVQLVESGGGLVQAGGSLRLSCAASGRIFRVYAMGWYRHAPGKERELVAAISGRGGSTTYADSVKGRFTISRDNAKNTVYLQMNSLKPEDTAVYYCNTAYLAKRSGRRRFNYWGHGTQVTVSS | low polyreactivity |
| QVQLVESGGGLVQAGGSLRLSCAASGRIFSYYAMGWYRQAPGKERELVAVISRRGDNTYYADSVKGRFTISRDNAKNTVYLQMNSLKPEDTEVFYCAAYSWYAKDFDYWGQGTQVTVSS | high polyreactivity |
| QVQLVESGGGLVQAGGSLRLSCAASGITFYQYAMGWSRQAPGKERELVAAIRWSGSSTYYADSVKGRFTISRDNAKNTVYLQMNSLKPEDTAVYYCAAAPGGWPGEYWGQGTQVTVSS | low polyreactivity |
| QVQLVESVVGLVQARVSLRLSCASSGFIFRFYTMGWYIQPPGKESEFVPAISWSGTSTYYADSVKGRFTISRDNAKNTVYLQMNSLKPEDTAVYYCAAGYKWKGTVWIMDYWGQGTQVTVSS | high polyreactivity |
| QVQLVESGGGLVQAGGSLRLSCAASGSTFKRYAMGWYRQAPGKEREFVAGISSRGSRTYYADSVKGRFTISRDNAKNTVYLQMNSLKPEDTAGYYCAVSGNHVSPPYGYWGQGTQVTVSS | high polyreactivity |
| QVQLVESGGGLVQAGGSLRLSCAASGYTFLGYAMGWYRQAPGKERELVAAIRRSGGRTYYADSVKGRFTISRDNAKNTVYLQMNSLKPEDTAVYYCAKGYVGEYDYWGQGTQVTVSS | high polyreactivity |
| QVQLVESGGGLVQAGGSLRLSCAASGNTFYLYAMGWYRKAPGKERELVASITGGTRTNYADSVKGRFTISRDNAKNTVYLQMNSLKPEDTAVYYCAVRYYWRRMNYWGQGTQVTVSS | high polyreactivity |
| QVQLVESGGGLVQAGGSLRLSSAANGMIYVSYAMGWYRQAPGKERELVATITRSGGSTYYADSVKGRFTISRDNAKNTVYLQMNSLKPEDTAVYYCARYWRTSGVRMDYWGQGTQVTVSS | high polyreactivity |
| QVQLVESGGGLVQAGGSLRLSCAASGITFPNYTMGWYRQAPWKERELLAAISYNGGGTYYADSVNGRFTISRYKAKNTVYVQKNSLKPEDTAVYYCAALGLYGDYLRYDYWGQGTQVSVSS | high polyreactivity |
| QVQLEESGGGLVQAGGSLRLSCAGSGFTFGVYAMGWYRQAPGKERELVAVIRGSGGSTYYADSVKGRFTISRDKAKNTVYLQMNSLKPEDTAGYYCAARRYQYVWSLYNYWGQGTQVTVSS | high polyreactivity |
| QVQLVESGGGLVQAGGSLRLSCAASGSIFSYNAMGWYRQAPGKERELVAAIRASGGDTYYADSVKGRFTISRDNAKNTVYLQMNSLKPEDTAVYYCAARTYAHHYASHGYWGQGTQVTVSS | low polyreactivity |
| QVQLVESGGGLVQAGGSLRLSCAASGSTFSGYAMGWYRQAPGKERELVAAITSGGGTYYADSVKGRFTISRDNAKNTVYLQMNSLKPEDTAVYYCAADGIARAYVLLDAYDFLYDYWGQGTQVTVSS | low polyreactivity |
| QVQLEESGGGLVQAGGSLRLICAASGIIFRLNAMGWYRQATGQDRELVAAIRRRGGSTYYADSVKGRFTISRDNAKNTVYLQMNSLKPEDTAVYYCNARYLRMRYPYTDEYNYWGQGTQVTVSS | low polyreactivity |
| QVQLVESGGGLVQAGGSLRLSCAASGRIFYAYAMGWYRKAPGKERELVAAITETGGNTYYADSVKGRFTISRDNAKNTVYLQMNSLKPEDTAVYYCARKGRRTHHYGLYSSSVYYWGQGTQVTVSS | low polyreactivity |
| QVQLVESGGGLVLAGGSLRLSCAASGIIFKIYAMGWFRQAPGKEMELVADITSVGSTKYADSVKGRFTISRDNAKNTVYLQMNSLKPEDTAVYYCATDWVTSHDDDYWGQGTQVTVSS | low polyreactivity |
| QVQLVESGGGLVQAGGSLRLSCAATGSTFLVNAMGWYRQAPGKERELVAAISRGGSTYADSVKGRFTISRDNAKNTVYLQMYSMNPEDTAVYYCNARRYQSYRYYYWGQGTQVTVSS | high polyreactivity |

| Sequence | polyreactivity (PSR sort gate) |
| --- | --- |
| QVQLVESGGGLVQAGGSLRLICAASGSTILVYAMGCYRQAPWKEMELVAAITQIDGSTYYADSVKGRFTISRDNAKNTVYLQMNSLKPEDTAVFYCAARFFWTYEYDYWGQATQVTVSS | low polyreactivity |
| QVQLVESGGGLVQAGGSLRLSCAASGFTFYTYVKGWYRQAPGKERELVAAITSGVSTNYADSVKGRFTISRDNAKNTVYLQMNSVKPEDTAVYYFNKTFLFLEYDSWGQGTQVTVSS | low polyreactivity |
| QVQLVESGGGLVQAGGSLRLSCAASGSIFEVNAMGWYRQAPGKERELVATITYSGGSTYYSDSVKGRFTISRDNAKNTVYLQMHSLKPEDTAVFYCAAPIGDVYVGNGYDSWGQGTQVTVSS | low polyreactivity |
| QVQLVESGGGLVQAGGSLRLSCAASGRIFPFYAMGWYRPATWIQRELVAAITSSGGRTYYADSVKGRFTISRDIAKNTVYLQMNSLKPEETAVYYCAAGHGCYYRYFSQRDYWGQGTQVTVSS | low polyreactivity |
| QVQLVESGGGLVQAGGSLRLSCAASGIILHYYAMGWYRQAPGKERELVAAISARGGRTYYADSVKGRFTISRDNAKNTVYLQMNSLKPEDTAVYYCARYLRRSSPSPGYGYWGQGTQVTVSS | high polyreactivity |
| QVQLVESGGGLVQAGGSLRLSCAASGSTFPYNTMGWYRQAPGKEREFVAAITGDGGTTYYADSVKGRFTISRDNAKNTVYLQMNSLKPEDTAVYYCAVPYPAEGYGGDYWGQGSQVTVSS | low polyreactivity |
| QVQLVESGGGLVQAGGSLRLSCAASGGTFRVYAMGWYRQAPGKERELVAAITGRGGSTYYADSVKGRFTISLDNAKNTVDLQMNSLKPEDTAVYYCAKDPVTTYYKYDYWGQGTQVTVSS | low polyreactivity |
| QVQLVESGGGLVQAGFSLRLSCAASGSIFFIYDKGWYRQAPGKERELVADITSGGGSTFYADSVKGRFTISRDNAKNTVYLQMNSLKPEDTAVYYCATDDHDQPGGQLYISEVNYWGQGTQVTVSS | low polyreactivity |
| QVQLVESGGGLVQAGCSLRLSCAASGSFFSSNSMGWYRQAPGTERELVAAISRSGGNTYYADSVKGRFTISRDNAKNTVYLQMNSLKPEDTAVYYCAVVGRHGQKYDWGQGNQVTVSS | high polyreactivity |
| QVQLVESGGVLVQAGGSLRLSCAASGRIFAYYTMGWYRQAPGKEREMVAAISLSGSSTYYADSVKGRFTISRDNAKNNVYLHMNSLKPEDTAVYYCNADSYAYYSWYDYWGQGTQVTVSS | low polyreactivity |
| QVQLVESGGGLVQAGGSLRLSCAASGRIYWNTMGWYRPAPGKERELVASISTGGGRTYYADSVKGRFTISRDNAKNTVYLQMNSLKPEDTAVYYCAARRGAGYSRFNYWGQGTQVTVSS | high polyreactivity |
| QVQLVESGGGLVQAGGSLRLTCAASGRIAWYRQAPGKERELVAAITSGDRTNYADSVKRRFTISRDNAKNTVYFQMNSLKPEDTAVYYCATEPSWYHGFIDPRGYWGQGTQVTVSS | low polyreactivity |
| QVQLVESGGGLVQAGGSLRLSCAASGRIFNYNAMGWYRQAPGKERELVATITYSDATTYYADSVKGRFTISRDNAKITVYLQMNSLKPEDTAVYYCNAPSRSYDRYISAGRRYDYWGQGTQVTVSS | low polyreactivity |
| QVQLVESGGGLVQAGGSLRLSCAASGFTFYYYDMGWYRQAPGKERELVAAITTGGSTKYADSVKGRFTISRDNAKNTVYLQMNSLKPEDTAVYYCNADDSVYVFSKYDYWGQGTQVTVSS | high polyreactivity |
| QVQLVESGGGLVQAGGSLRLSCAASGFTFNDYAMGWYRQAPGKERELVAAIDWSGGRTYYADSVKGRFTISRDNAKNTVYLQMNSLKPEDTAVYYCAAVLYSRMYWYRLDYWGQGTQVTVSS | low polyreactivity |
| QVQLVESGGGLVQAGGSLRLSCAASGSTFLRNVMGWYRQAPGKERELVAAISSRGGSTHYADSVKGRFTISRDNAKNTVYLQMNSLKPEDTAVYYCNSERTAAQYVRAAYDYWGQGTQVTVSS | low polyreactivity |
| QVQLVESGGGLVQAGGSLRLSCAASGFIFHNYAMGWSRQAPGKERELVAAISWSGSRTYYADSVKGRFTISRDNAKNTVYLQMNSLKPEDTAVYYCNAPGSPVVQQPGYYWGQGTQVTVSS | low polyreactivity |
| QVQLVESGGGLVQAGGSLRLSCAASGFTFWYYAMGWYRQAPGKERELVATISRGGGSTYYADSVKGRFTISRDNAKNTVYLQMNSLKPEDTAVYYCAAETVRWWWLYDYWGQGTQVTVSS | high polyreactivity |
| QVQLVESGGGLVQAGGSLRLSCAASGYTFWAYTMGWSRQAPGKERELVAAISFSGGSTYYADSVKGRFTISRDNAKNTVYLLMNSLKPEDTAVYYCAADYLIEMDYWGQGTQVTVSS | low polyreactivity |
| QVQLVESGGGLDQAGGSLRLSCAASGRIFVFYTMAWYRQAPGKERDLVAAITKSGGSTYYADSVKGRFTISRDNAKNTVYFQMNSLKPEDTAVYYCATRDSPRTKNGYYYWGQGTQVTVSS | high polyreactivity |
| QVQIGESGGGLVQAGGSLRLSCAASGRTFGLYAMGWYRQAPGKERELVAAITISGGITHYADSVKGRFTISRDIAKNSVYLQMNSLKPEDTAVYYCAAEPPGFRTSGVGYWGQGTQVTVSS | low polyreactivity |
